For experiment [1], the target named is spike protein on live SARS-CoV-2 (SARS-CoV-2, UniProt P0DTC2 14-1273). Put plainly: cell-based or functional assay.
Experiment [2] deals with T1, full length spike (S) protein of SARS-CoV-2 (SARS-CoV-2, UniProt P0DTC2 14-1273). In words: cell-based or functional assay.
Experiment [3] addresses full length S protein of SARS-CoV-2 (on pseudovirus) (SARS-CoV-2, UniProt P0DTC2 14-1273). In words: cell-based or functional assay.
The target of experiment [4] is spike protein of live SARS-CoV-2 (SARS-CoV-2, UniProt P0DTC2 14-1273). In words: cell-based or functional assay.
Experiment [5] concerns the target full length spike (S) protein of SARS-CoV-2 on pseudovirus (SARS-CoV-2, UniProt P0DTC2 14-1273). In words: cell-based or functional assay.
Experiment [6] has as its target spike (S) protein of live SARS-CoV-2 (SARS-CoV-2, UniProt P0DTC2 14-1273). In words: cell-based or functional assay.
Experiment [7] deals with recombinant RBD of the spike protein of SARS-CoV-2 (residues Arg319-Phe541) (SARS-CoV-2, UniProt P0DTC2 319-541).
Experiment [8] has as its target T1, full length spike (S) protein of …. Put plainly: cell-based or functional assay. This is another data set of the same source.
For experiment [9] the target is unchanged. In words: cell-based or functional assay. The source holds these as a separate data set.

Where two headings read alike, the source gives them in different places.

B1: P2A-1A8 (antibody, V domains shown)
VH: EVQLVESGGDLVQPGRSLRLSCAASGFAFDDYAMHWVRQAPGKGLEWVSGSTWNSGTIAYADSVKGRFTISRDNAKKSLYLQMNSLRTEDTALYYCAKLGGYSDYDYPRPGDHYYGLDVWGQGTTVTVSS
VL: QSALTQPASVSGSPGQSITISCTGTSSDVGSYNLVSWYQQHPGKVPKLLIYDVNKRPSGISNRFSGSKSGNTASLTISGLQAEDEADYYCRSYTDSNTYVFGTGTKVTVLG
For the molecule B1, in [1], the “IC50, live SARS-CoV-2 focus reduction neutralization test (FRNT)” value was 35.9 µg/mL. Further, in [2], the “IC50, pseudovirus neutralization” value is 7.68 µg/mL; the “Neutralizing activity (%) Mean at 0.0228624 µg/ml” value is 4.34%; the “Neutralizing activity (%) Mean at 0.0685871 µg/ml” value amounted to 13.2%; the “Neutralizing activity (%) Mean at 0.2057613 µg/ml” value was 14.1%. Further, in experiment [2], the “Neutralizing activity (%) Mean at 0.6172839 µg/ml” value was 16.5%, the “Neutralizing activity (%) Mean at 1.851852 µg/ml” value came out at 26.7%, the “Neutralizing activity (%) Mean at 5.555555 µg/ml” value stood at 44.8% and the “Neutralizing activity (%) Mean at 16.66667 µg/ml” value is 67.8%. Moreover, the “Neutralizing activity (%) Mean at 50 µg/ml” value in [2] was determined as 88.2%.

B2: P2B-2F6 (antibody, V domains shown)
VH: QVQLQESGPGLVKPSETLSLTCTVSGYSISSGYYWGWIRQPPGKGLEWIGSIYHSGSTYYNPSLKTRVTISVDTSKNQFSLKLSSVTAADTAVYYCARAVVGIVVVPAAGRRAFDIWGQGTMVTVSS
VL: QSALTQPPSASGSPGQSVTISCTGTSSDVGGYNYVSWYQQHPGKAPKLMIYEVSKRPSGVPDRFSGSKSGNTASLTVSGLQAEDEADYYCSSYAGSNNLVFGGGTKLTVLG
For B2, the “IC50, live SARS-CoV-2 focus reduction neutralization test (FRNT)” value in experiment [1] came out at 0.41 µg/mL. For the same molecule, in experiment [2], the “IC50, pseudovirus neutralization” value came out at 0.05 µg/mL; the “Neutralizing activity (%) Mean at 0.0228624 µg/ml” value turned out to be 39.4%; the “Neutralizing activity (%) Mean at 0.0685871 µg/ml” value is 51.8%; the “Neutralizing activity (%) Mean at 0.2057613 µg/ml” value stood at 67.1%. In experiment [2], the “Neutralizing activity (%) Mean at 0.6172839 µg/ml” value is 81.4%, the “Neutralizing activity (%) Mean at 1.851852 µg/ml” value was 89%, the “Neutralizing activity (%) Mean at 5.555555 µg/ml” value turned out to be 93.5% and the “Neutralizing activity (%) Mean at 16.66667 µg/ml” value is 95.4%. Also, the “Neutralizing activity (%) Mean at 50 µg/ml” value in [2] was 97.4%.

B3: P2B-2F6 (antibody, V domains shown)
VH: B2 VH
VL: B2 VL
Take B3: in experiment [3], the “Pseudovirus IC50” value worked out at 0.05 µg/mL and the “Pseudovirus IC80” value worked out at 0.607 µg/mL. Also, the “Live virus IC50” value in [4] came out at 0.407 µg/mL.

B4: P2B-2F6 (antibody, V domains shown)
VH: B2 VH
VL: B2 VL
With B4, in experiment [5], the “Pseudovirus IC50” value was 0.05 µg/mL and the “Pseudovirus IC80” value was 0.607 µg/mL. Moreover, in experiment [6], the “Live virus IC50” value was 0.407 µg/mL and the “Live virus IC80” value amounted to 2.43 µg/mL.

B5: P2B-1G5 (antibody, human IgG1, lambda, V domains shown)
VH: QVQLVQSGSELKKPGASVKVSCKASGYTFTTYVMNWVRQAPGQGLEWMGWINTNTGNPTYAQGFTGRFVFSLDTSVSTASLQISSLKAEDTAVYYCSCEITTLGGMDVWGQGTTVTVSS
VL: SYVLTQPPSVSVAPGKTARITCGGNNIGSKSVHWYQQKPGQAPVLVIYYDSDRPSGIPERFSGSNSGNTATLTISGVEAGDEADYYCQVWDSISDHRVFGGGTKLTVLG
On to B5, for which, in [7], the Kd (usually the concentration at which binding is half-saturated) was found to be 0.1 nM and the kon (usually the second-order rate constant of association) was found to be 1.38e+06 M⁻¹ s⁻¹. For the same molecule, the “IC50, pseudovirus neutralization” value in experiment [8] amounted to 0.11 µg/mL.

B6: P4B-1F4 (antibody, human IgG1, kappa, V domains shown)
VH: QVQLVESGGGVVQPGRSLRLSCAASGFTFSSYGMHWVRQAPGKGLEWVAVISYDGSNKYYADSVKGRFTISRDNSKNTLYLQINSLRAEDTAVYYCAKGPRYSSSWYISLYYYYGMDVWGQGTTVTVSS
VL: not shown
For B6, the “IC90, Pesudovirus neutralization” value in experiment [9] turned out to be 14.5 µg/mL.
